Assay results as given in paper PMC12101266.
Read-outs that look alike come from different tables or passages of the source.

How the values were obtained:
casein [1] = target: casein
casein [2] = target: casein; remark: listed apart in the source

Km of casein proteolysis (substrate–velocity curve, UV absorbance at 280 nm, casein 7–80 µM, 37 °C, 50 mM Tris pH 7.8) (casein [1]): 14.6 µM
Km of casein proteolysis (substrate–velocity curve, UV absorbance at 280 nm, casein 7–80 µM, 37 °C, 50 mM Tris pH 7.8) (casein [2]): 14.1 µM/min
Substance: purified S. trilobatum serine protease (StSP) (enzyme)
